{
  "source": "patent US6884600",
  "binders": {"B1": {"name": "β isoform of PP1c released from rabbit skeletal muscle PP1G (protein)", "chain": "ADGELNVDSLITRLLEVRGCRPGKIVQMTEAEVRGLCIKSREIFLSQPILLELEAPLKICGDIHGQYTDLLRLFEYGGFPPEANYLFLGDYVDRGKQSLETICLLLAYKIKYPENFFLLRGNHECASINRIYGFYDECKRRFNIKLWKTFTDCFNCLPIAAIVDEKIFCCHGGLSPDLQSMEQIRRIMRPTDVPDTGLLCDLLWSDPDKDVQGWGENDRGVSFTFGADVVSKFLNRHDLDLICRAHQVVEDGYEFFAKRQLVTLFSAPNYCGEFDNAGGMMSVDETLMCSFQILKPSEKKAKYQYGGLNSGRPVTPPRTANPPKKR"}},
  "key": {"[1]": {"molecular_target": "T1, GST-M110-(M1-E309), GST tag not cleaved", "T1 chain": "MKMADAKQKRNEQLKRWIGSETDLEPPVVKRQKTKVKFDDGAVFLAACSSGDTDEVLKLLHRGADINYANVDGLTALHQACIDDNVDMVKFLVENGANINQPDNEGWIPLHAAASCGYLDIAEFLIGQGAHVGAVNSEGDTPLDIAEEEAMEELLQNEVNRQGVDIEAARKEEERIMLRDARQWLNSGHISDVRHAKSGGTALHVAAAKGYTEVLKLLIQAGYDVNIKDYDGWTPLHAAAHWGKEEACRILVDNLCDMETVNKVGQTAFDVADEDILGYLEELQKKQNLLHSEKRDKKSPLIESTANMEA"}, "[2]": {"molecular_target": "catalytic subunit of protein phosphatase-1, γ1-isoform (PP1γ1), produced in Escherichia coli (UniProt P36873)", "sequence (P36873 whole entry, canonical isoform)": "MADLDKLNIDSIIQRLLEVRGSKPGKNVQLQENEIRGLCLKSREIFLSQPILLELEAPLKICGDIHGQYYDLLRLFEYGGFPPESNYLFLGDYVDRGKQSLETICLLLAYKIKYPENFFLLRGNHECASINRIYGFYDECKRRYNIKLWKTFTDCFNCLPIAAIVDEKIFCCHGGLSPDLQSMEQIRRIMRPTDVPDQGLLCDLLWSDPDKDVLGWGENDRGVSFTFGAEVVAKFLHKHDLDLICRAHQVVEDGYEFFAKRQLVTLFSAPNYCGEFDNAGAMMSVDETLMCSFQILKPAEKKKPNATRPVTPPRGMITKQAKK", "experiment": "co-crystal structure at 3.0 Å, method of Lee and Richards"}},
  "data": [
    {"binder": "B1", "values": [
      {"measurement": "concentration needed to modulate the substrate specificity of PP1c, relative to the cleaved fragment", "setting": "[1]", "result": "If the GST tags were not cleaved with thrombin, a 10-fold higher concentration of M110-(M1-E309) was needed to modulate the substrate specificity of PP1c"}
    ]},
    {"binder": "GRRVSFADNFGFN", "note": "[GM-(G63-N75) synthetic peptide]", "values": [
      {"measurement": "total solvent accessible surface area buried on formation of the complex", "setting": "[2]", "result": 980, "unit": "Å2"}
    ]}
  ]
}
